{"source": "patent US8153410B2", "about": "“Alternate morpheein forms of allosteric proteins as a target for the development of bioactive molecules” (Fox Chase Cancer Center, priority 2003, dated 2012)", "molecules": {"B1": {"name": "F12L: naturally occurring rare allele variant of human PBGS, hexameric, heterologously expressed in E. coli (protein)", "chain": "MQPQSVLHSGYLHPLLRAWQTATTTLNASNLIYPIFVTDVPDDIQPITSLPGVARYGVNRLEEMLRPLVEEGLRCVLIFGVPSRVPKDERGSAADSEESPAIEAIHLLRKTFPNLLVACDVCLCPYTSHGHCGLLSENGAFRAEESRQRLAEVALAYAKAGAQVVAPSDMMDGRVEAIKEALMAHGLGNRVSVMSYSAKFASCFYGPFRDAAKSSPAFGDRRCYQLPPGARGLALRAVDRDVREGADMLMVKPGMPYLDIVREVKDKHPDLPLAVYHVSGEFAMLWHGAQAGAFDLKAAVLEAMTAFRRAGADIIITYYTPQLLQWLKEE"}}, "assay_type_in_all_cases": "biochemical", "key": {"pea PBGS [1]": {"biological_target": "T1, pea PBGS (Pisum sativum, UniProt P30124, C394A)", "T1 construct": "made in house", "T1 sequence (P30124 69-398 C394A)": "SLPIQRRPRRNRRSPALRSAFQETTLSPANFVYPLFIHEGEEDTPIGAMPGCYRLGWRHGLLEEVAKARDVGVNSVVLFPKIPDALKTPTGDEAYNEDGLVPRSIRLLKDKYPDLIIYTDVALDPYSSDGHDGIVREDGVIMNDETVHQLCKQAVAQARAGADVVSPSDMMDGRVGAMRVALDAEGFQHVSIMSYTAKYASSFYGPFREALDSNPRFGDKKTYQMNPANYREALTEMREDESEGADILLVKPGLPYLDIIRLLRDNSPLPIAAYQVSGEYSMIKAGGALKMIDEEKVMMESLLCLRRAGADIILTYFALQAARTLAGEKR", "experiment": "native PAGE gel shift of pea PBGS octamer/hexamer equilibrium", "settings": "pea PBGS C326A hexamer, rosmarinic acid 12.5 μM-12.5 mM preincubated 30 min 37 C, then 1 mM ALA and 1 mM MgCl2", "experimental": "(§1) FIG. 32(a) The inhibitor morphlock-1 is illustrated as posed by Glide. The subunits A, B, and E are illustrated as ribbon diagram. Morphlock-1 is shown with carbon atoms and illustrated as ball and stick. FIG. 32(b) The chemical structure of morphlock-1. […] Pea PBGS was incubated with various concentrations of morphlock-1 (in a DMSO solution). Each concentration of morphlock-1 with a fixed amount of DMSO was incubated with protein for 30 minutes at 37° C. prior to resolution on 12.5% polyacrylamide native PhastGels. […] (d) The protein concentration dependence of pea PBGS specific activity is illustrated. PBGS (at varied concentrations) was incubated in the presence of DMSO (●) or 50 μM morphlock-1 in DMSO (∘) for 30 minutes at 37° C. prior to assay. The final concentration of morphlock-1 in the inhibited assay was 5 μM, and the concentration of PBGS in the inhibited and control assays ranged from 0.05-50 μg/mL (0.014-1.4 μM).\nFIG. 34(b) Hexameric pea PBGS (1 mg/mL, prepared by dialysis against low ionic strength) was incubated with DMSO (left) or 500 μM morphlock-1 (right) for 30 minutes at 37° C. ALA was added at the indicated concentrations, and the incubation was continued for 30 minutes prior to resolution on 12.5% polyacrylamide native PhastGels. […] Morphlock-1 concentrations are listed at the top of each lane. Protein samples for left-most gel were at 50 μg/ml (1.4 μM subunit) and 1 mM ALA; protein detection is by silver staining. Samples for the middle gel were also at 50 μg/ml (1.4 μM subunit) and 1 mM ALA; the gel was activity stained. Samples for the right-most gel were at 5 μg/ml (0.14 μM subunit) and 10 mM magnesium; protein detection is by Krypton Infrared staining.\nFIG. 41 illustrates native PAGE screening of compounds. Octameric PBGS (1 mg/mL) was incubated with DMSO or 2 mM of each compound for 30 minutes at 37° C. prior to resolution on 12.5% polyacrylamide native PhastGels. […] Each compound is identified by its box address. The compound B6 is morphlock-1.\nThe interconversion of pea PBGS hexamer and octamer is a dynamic equilibrium that responds to protein concentration, substrate concentration, magnesium concentration, inhibitor concentration, and ionic strength."}, "pea PBGS [2]": {"biological_target": "T2, pea PBGS (Pisum sativum, UniProt P30124)", "T2 sequence (P30124 69-398 limits assumed)": "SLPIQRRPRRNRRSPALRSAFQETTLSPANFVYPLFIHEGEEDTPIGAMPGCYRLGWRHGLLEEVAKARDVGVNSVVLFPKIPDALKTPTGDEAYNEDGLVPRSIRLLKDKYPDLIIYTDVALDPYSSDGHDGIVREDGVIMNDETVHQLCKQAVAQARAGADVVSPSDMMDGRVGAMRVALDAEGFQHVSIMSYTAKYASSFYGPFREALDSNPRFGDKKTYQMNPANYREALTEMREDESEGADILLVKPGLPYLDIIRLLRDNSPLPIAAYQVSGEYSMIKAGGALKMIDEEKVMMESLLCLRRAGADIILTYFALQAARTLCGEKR", "experiment": "pea PBGS activity assay (inhibition, protein concentration dependent specific activity)", "set-up": "made in house", "experimental": "as §1, with “PBGS (at varied concentrations) was incubated in the presence of DMSO (●) or 50 μM morphlock-1 in DMSO (∘) for 30 minutes at 37° C. prior to assay.” left out\nThe proteins were incubated in the presence of 10× inhibitor for 30 minutes at 37° C. prior to assay. The concentrations on the X-axis represent the final concentration of morphlock-1 in the assay. FIG. 33(b). […] IC50 values were determined as per part (a) using the noted concentrations of pea PBGS. (c) Native PAGE evaluation of the effect of morphlock-1 on the quaternary structure equilibria of PBGS (˜1 mg/ml) from D. melanogaster, P. aeruginosa, V. cholerae, and H. sapiens. Note that the charge/mass ratio is not the same for PBGS from different species.\nThe dose response curve for morphlock-1 inhibition of pea PBGS (FIG. 37a) was initially carried out at 0.03 μM pea PBGS, where the hexamer is a significant component of the equilibrium mixture; the morphlock-1 concentration was varied from 0.1 μM to 0.1 mM.\nThe dose response curve for morphlock-1 inhibition of pea PBGS (FIG. 33(a)) was initially carried out at 0.03 μM pea PBGS, where the hexamer is a significant component of the equilibrium, in order to optimize the observed inhibition; the morphlock-1 concentration was varied from 0.1 μM to 0.1 mM."}, "human PBGS [3]": {"system": "human PBGS", "experiment": "kinetic characterization (Km, Vmax, specific activity) of human PBGS variants with substrate ALA", "settings": "for Km1 / Vmax1: Table 1; for Vmax2 / Km: Table 3; for Km: read-out: Km2 (Km for the hexamer)", "experimental": "All kinetic determinations were carried out in 0.1 M bis-tris propane, 10 mM 2-mercaptoethanol, 10 μM Zn. For the pH rate profiles, the reported pH reflects the assay pH after the addition of 10 mM ALA-HCl. For Km and Vmax determinations, concentrations of ALA were 10 μM, 30 μM, 100 μM, 300 μM, 1 mM, 3 mM, and 10 mM and were each done in duplicate. […] All assays were at 37° C. for a fixed time using Ehrlich's reagent to determine porphobilinogen formed.\nThe kinetic parameters Km and Vmax of the S300 purified pools were determined at pH 7 and at pH 9 (Table 3 contains data for hetero-hexamers (Pool I) initially at 70% Leu and 30% Phe and for hetero-octamers (Pool II) initially at 30% Leu and 70% Phe). […] With the exception of the trace amount of octamer present for Pool I that is detected at pH 9, all the kinetic values are well determined (see Table 3). […] The factors that govern equilibration of human PBGS heteromers under assay conditions remain to be elucidated.\nKm1 and Km2 (both mM) are interpreted as the Km for the octamer and hexamer, respectively.\nUsing freshly prepared hetero-oligomers of WT+F12L, the Pool I and Pool II proteins were separated chromatographically and then dialyzed for 24 hours at pH 7 in the presence of 10 mM ALA. Following dialysis, the re-equilibrated hetero-oligomers were again separated into their hexameric and octameric components by chromatography on a Mono-Q column. The separated proteins were characterized for their specific activity and for their Phe12 and Leu12 content. The specific activity of hexamer and octamer are dramatically different with hexamer showing optimal activity at pH 9 and the activity of octamer is maximal at pH 7 (Table 4). […] Following chromatographic separation, the proteins were called Pool I hexamer, Pool I octamer, Pool II hexamer, and Pool II octamer and are described below. The peak to elute first on the Mono-Q column runs comparably to the F12L mutant, which is the hexamer. The hexameric structure is substantiated by native gel electrophoresis and by specific activity at pH 7 and pH 9 (FIG. 26A and Table 4). The second peak to elute runs comparably to the WT human PBGS, which is the octamer. The octameric structure is substantiated by native gel electrophoresis and specific activity at pH 7 and pH 9 (FIG. 26A and Table 4). Consistent with the documented characteristics of human PBGS hexamers and octamers, Pool I hexamer and Pool II hexamer have very low activity at pH 7 and considerable activity at pH 9. Pool I octamer and Pool II octamer both show substantially higher activity at pH 7 than at pH 9."}, "human PBGS [4]": {"system": "human PBGS", "experiment": "temperature dependence (Arrhenius plots) of hetero-hexamer to hetero-octamer conversion and of substrate turnover", "settings": "pH 7.0, 10 mM ALA-HCl", "from_the_text": "To determine the free energy of activation for the conversion of hetero-hexamers to hetero-octamers, we took advantage of the dramatic differences in the activity of octameric (high activity) and hexameric (low activity) human PBGS at pH 7.0 (3, 5). Because of this difference, the transition from purified hetero-hexamers to a mixture of hetero-hexamers and hetero-octamers under turnover conditions is accompanied by a progressive increase in the specific activity; this process was monitored at several temperatures. Starting with purified hetero-hexamers, (FIG. 34a) the specific activity increased, which is fit to a first-order exponential as exemplified in FIG. 35b (5). […] The time-courses for conversion of hetero-hexamer to hetero-octamer were monitored by periodically removing aliquots from the incubations and immediately quantifying porphobilinogen using Ehrlich's reagent and calculating specific activities based on the total incubation time. […] An activation energy for hetero-hexamer to hetero-octamer conversion (Ea=63±5 kJ/mol) was determined from the slope of the plot. […] However, we previously monitored this process at 5 μg/ml and 0.9 mg/ml, two widely different enzyme concentrations, by specific activity increase and dynamic light scattering respectively. […]"}}, "note": "Entries after “also recorded” stand apart in the source; their conditions may differ. Read-outs that look alike come from different tables or passages of the source.", "data": [{"molecule": "O=C(/C=C/c1ccc(O)c(O)c1)O[C@H](Cc1ccc(O)c(O)c1)C(=O)O", "note": "[rosmarinic acid, benzenepropanoic acid, α-[[(2E)-3-(3,4-dihydroxyphenyl)-1-oxo-2-propenyl]oxy]-3,4-dihydroxy-, (αR)-(9CI), reference compound]", "values": [{"measurement": "native gel: conversion of hexamer to octamer by ALA and magnesium", "setting": "pea PBGS [1]", "value": "prevent conversion of the hexamer to the octamer; also recorded: stabilizes the hexameric pea PBGS against conversion to the octamer"}, {"measurement": "IC50", "setting": "pea PBGS [2]", "value": "~63", "unit": "µM"}, {"measurement": "mode of inhibition (dependence on preincubation time)", "setting": "pea PBGS [2]", "value": "slow-binding inhibitor"}, {"measurement": "PBGS concentration giving half maximal specific activity after rosmarinic acid treatment", "setting": "pea PBGS [2]; 30 minute treatment with 30 μM rosmarinic acid, untreated 3.5 μg/ml", "value": 13.5, "unit": "µg/mL"}]}, {"molecule": "B1", "values": [{"measurement": "Specific activities before and after substrate induced disproportionation", "setting": "human PBGS [3]; pH 7", "value": 0.3, "unit": "µmol/h/mg"}, {"measurement": "Km1", "setting": "human PBGS [3]; pH 7", "value": "17.7 ± 1.1", "unit": "mM"}, {"measurement": "Vmax1", "setting": "human PBGS [3]; pH 7", "value": "1.14 ± 0.05"}, {"measurement": "Vmax2", "setting": "human PBGS [3]; pH 7", "value": "1.14 ± 0.05", "unit": "µmol/h/mg"}, {"measurement": "Km", "setting": "human PBGS [3]; pH 7", "value": "17.7 ± 1.1", "unit": "mM"}, {"measurement": "Specific activities before and after substrate induced disproportionation", "setting": "human PBGS [3]; pH 9", "value": 14.5, "unit": "µmol/h/mg"}, {"measurement": "Km1", "setting": "human PBGS [3]; pH 9", "value": "4.6 ± 0.1", "unit": "mM"}, {"measurement": "Vmax1", "setting": "human PBGS [3]; pH 9", "value": "18.2 ± 0.02"}, {"measurement": "Vmax2", "setting": "human PBGS [3]; pH 9", "value": "18.2 ± 0.2", "unit": "µmol/h/mg"}, {"measurement": "Km", "setting": "human PBGS [3]; pH 9", "value": "4.6 ± 0.1", "unit": "mM"}, {"measurement": "activation energy for substrate turnover", "setting": "human PBGS [4]", "value": "45 ± 3", "unit": "kJ/mol"}]}]}
